Experimental data published in US20240116985A1 (published 2024).
Starred links: 1 amine or outer side, 2 acyl side, 3 side chain; linkers in the order of their positions; H or OH if unused. Positions of bridges follow the written chain, without caps; N, C: chain ends. Non-standard residues stand in square brackets, D forms with d. Primed or numbered codes have the meaning given here. PyrS2″ = (S)-3-amino-1-((pent-4-en-1-yloxy)carbonyl)pyrrolidine-3-carboxylic acid (stapling residue), C=CCCCOC(=O)N1CC[C@@](N[*:1])(C(=O)[*:2])C1; B5(4) = 2,2-bis(4-pentenyl)glycine = 2-amino-2-(pent-4-en-1-yl)hept-6-enoic acid (stitching residue), C=CCCCC(CCCC=C)(N[*:1])C(=O)[*:2]; B5(3) = 2,2-bis(4-pentenyl)glycine (stitching residue), C=CCCCC(CCCC=C)(N[*:1])C(=O)[*:2]; Bta = N[C@@H](Cc1csc2ccccc12)C(=O)O; αAllylPro = C=CC[C@@]1(C(=O)O)CCCN1; tBuAla = CC(C)(C)C[C@H](N)C(=O)O; 3Thi = N[C@@H](Cc1ccsc1)C(=O)O; TfeGA″ = not defined here

T1: B-cat-Halo (UniProt P35222 1-781)
T1 sequence (looked up): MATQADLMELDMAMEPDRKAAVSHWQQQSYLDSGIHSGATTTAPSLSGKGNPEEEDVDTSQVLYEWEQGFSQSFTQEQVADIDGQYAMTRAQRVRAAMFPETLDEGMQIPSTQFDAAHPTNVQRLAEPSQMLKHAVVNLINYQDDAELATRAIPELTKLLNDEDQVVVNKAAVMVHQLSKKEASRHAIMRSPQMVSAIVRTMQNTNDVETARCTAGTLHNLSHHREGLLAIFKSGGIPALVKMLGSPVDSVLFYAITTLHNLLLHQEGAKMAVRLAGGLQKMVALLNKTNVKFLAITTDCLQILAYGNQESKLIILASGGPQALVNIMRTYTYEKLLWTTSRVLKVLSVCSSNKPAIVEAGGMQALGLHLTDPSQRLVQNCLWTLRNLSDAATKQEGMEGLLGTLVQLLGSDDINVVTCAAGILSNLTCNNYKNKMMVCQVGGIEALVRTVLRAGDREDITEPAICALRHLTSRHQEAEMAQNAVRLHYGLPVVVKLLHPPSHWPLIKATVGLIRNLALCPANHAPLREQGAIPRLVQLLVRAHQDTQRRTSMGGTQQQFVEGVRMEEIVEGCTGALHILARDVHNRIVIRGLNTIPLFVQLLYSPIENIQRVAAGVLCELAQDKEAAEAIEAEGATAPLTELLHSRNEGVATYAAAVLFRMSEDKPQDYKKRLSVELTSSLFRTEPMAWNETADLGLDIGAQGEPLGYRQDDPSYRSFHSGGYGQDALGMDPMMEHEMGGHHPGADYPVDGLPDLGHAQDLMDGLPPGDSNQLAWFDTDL

T2: beta-catenin in DLD1 TCF/LEF luciferase reporter cells (UniProt P35222 1-781)
T2 sequence (looked up): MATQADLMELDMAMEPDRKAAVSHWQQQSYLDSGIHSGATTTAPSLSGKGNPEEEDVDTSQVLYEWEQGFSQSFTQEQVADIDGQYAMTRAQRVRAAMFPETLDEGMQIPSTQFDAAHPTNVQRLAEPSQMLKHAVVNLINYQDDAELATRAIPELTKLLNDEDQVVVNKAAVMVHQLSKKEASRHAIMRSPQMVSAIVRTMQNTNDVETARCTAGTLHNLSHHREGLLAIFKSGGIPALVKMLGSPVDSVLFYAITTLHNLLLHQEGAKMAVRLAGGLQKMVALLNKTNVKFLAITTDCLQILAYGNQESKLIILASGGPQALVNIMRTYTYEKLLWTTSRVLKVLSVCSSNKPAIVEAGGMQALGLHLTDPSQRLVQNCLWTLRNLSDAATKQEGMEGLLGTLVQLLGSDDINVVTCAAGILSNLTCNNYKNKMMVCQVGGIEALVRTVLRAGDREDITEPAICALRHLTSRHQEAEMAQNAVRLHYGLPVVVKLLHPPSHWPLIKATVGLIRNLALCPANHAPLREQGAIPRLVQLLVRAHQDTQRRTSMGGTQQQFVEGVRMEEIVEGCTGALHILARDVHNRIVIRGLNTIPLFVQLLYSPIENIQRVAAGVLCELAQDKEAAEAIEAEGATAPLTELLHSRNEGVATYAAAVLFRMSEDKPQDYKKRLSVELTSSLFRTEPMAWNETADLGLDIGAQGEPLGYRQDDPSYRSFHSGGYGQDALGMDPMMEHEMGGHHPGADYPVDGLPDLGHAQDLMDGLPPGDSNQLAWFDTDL

T3: beta-catenin in DLD1 TCF/LEF luciferase reporter cells (UniProt P35222 2-781)
T3 sequence (looked up): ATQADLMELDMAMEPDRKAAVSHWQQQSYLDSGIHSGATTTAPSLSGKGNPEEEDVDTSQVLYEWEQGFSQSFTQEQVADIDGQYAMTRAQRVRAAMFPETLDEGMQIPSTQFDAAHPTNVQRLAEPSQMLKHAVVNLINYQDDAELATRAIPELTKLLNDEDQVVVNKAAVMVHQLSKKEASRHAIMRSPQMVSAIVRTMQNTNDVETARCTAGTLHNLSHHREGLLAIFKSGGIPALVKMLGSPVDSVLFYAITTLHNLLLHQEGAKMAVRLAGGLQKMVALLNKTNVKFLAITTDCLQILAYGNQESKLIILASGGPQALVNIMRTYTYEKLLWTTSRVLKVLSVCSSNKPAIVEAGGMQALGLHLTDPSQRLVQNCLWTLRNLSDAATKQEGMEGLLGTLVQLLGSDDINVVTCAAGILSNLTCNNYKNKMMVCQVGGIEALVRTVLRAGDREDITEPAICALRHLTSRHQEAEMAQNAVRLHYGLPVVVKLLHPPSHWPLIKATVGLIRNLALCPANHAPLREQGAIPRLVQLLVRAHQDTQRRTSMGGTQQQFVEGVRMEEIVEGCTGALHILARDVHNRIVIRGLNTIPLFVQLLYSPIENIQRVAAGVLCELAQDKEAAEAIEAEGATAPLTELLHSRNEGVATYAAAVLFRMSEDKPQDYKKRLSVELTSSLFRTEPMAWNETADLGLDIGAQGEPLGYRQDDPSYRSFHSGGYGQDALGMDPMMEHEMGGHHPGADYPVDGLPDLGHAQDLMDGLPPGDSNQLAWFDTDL

T4: B-cat-Halo (UniProt P35222 1-781)
T4 sequence (looked up): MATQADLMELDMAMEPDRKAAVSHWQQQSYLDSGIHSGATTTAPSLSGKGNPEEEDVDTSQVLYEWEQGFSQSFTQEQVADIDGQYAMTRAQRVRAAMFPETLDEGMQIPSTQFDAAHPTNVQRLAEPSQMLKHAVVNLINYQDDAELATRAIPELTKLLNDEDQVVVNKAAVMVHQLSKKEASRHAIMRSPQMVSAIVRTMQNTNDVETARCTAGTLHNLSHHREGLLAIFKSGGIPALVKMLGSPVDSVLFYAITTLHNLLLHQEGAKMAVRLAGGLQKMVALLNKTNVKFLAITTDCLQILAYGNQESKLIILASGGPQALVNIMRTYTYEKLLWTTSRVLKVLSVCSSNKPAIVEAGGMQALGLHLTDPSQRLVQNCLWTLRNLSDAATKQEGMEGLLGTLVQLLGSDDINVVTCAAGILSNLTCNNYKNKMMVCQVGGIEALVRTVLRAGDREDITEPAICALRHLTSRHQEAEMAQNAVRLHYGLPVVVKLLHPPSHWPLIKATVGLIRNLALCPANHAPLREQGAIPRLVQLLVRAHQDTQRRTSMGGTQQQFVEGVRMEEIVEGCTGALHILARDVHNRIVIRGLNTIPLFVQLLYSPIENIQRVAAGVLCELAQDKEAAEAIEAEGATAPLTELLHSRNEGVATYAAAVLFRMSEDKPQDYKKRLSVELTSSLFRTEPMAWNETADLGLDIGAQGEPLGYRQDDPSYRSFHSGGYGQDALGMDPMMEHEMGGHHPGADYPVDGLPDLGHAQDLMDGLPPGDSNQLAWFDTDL


How the values were obtained:
Test in all cases: cell-based or functional assay
[1] = biological target: T1, B-cat-Halo
[2] = biological target: T2, beta-catenin in DLD1 TCF/LEF luciferase …
[3] = biological target: T3, beta-catenin in DLD1 TCF/LEF luciferase …
[4] = biological target: T4, B-cat-Halo; remark: listed apart in the source

| NanoBRET Abs IC50 [1] [µM] | DLD1 4% Abs IC50 [2] [µM] | DLD1 4% Abs IC50 [3] [µM] | NanoBRET Abs IC50 [4] [µM] | Binder |
| --- | --- | --- | --- | --- |
| 4.8 | 2.7 | – | – | Ac-[αAllylPro]D[tBuAla][B5(4)]D[TfeGA″]AAFL[PyrS2″][3Thi][Bta]T-NH2 (staple 1-4, 4-11; reading uncertain) [I-1706] |
| – | – | 2.7 | 4.3 | Ac-[αAllylPro]D[tBuAla][B5(3)]D[(Tfb)GA]AAFL[PyrS2″][3Thi][Bta]Q-NH2 (staple 1-4, 4-11) [I-1629] |
